Key:
[1] = test system: PU.1 promoter activation in single PU.1 negative HSC; assay: Time-lapse video imaging of GFP-negative sorted HSC from PU.1-GFP mice; format: cell-based
Method: Wherever possible our video microscopy protocols followed proposed guidelines^24. In detail, FACS sorted CD150+ CD34− KSLF HCS from wt C57/Bl6 or GFP-negative CD150+ CD34− KSLF HSC from PU.1-GFP reporter mouse^31 bone marrow were suspended in SCM supplemented with 100 U/ml penicillin and […] streptomycin, 20 ng/ml rSCF, 50 ng/ml rTPO+/−100 ng/ml rM-CSF and plated in Ibidi μ-slidesVI(0.4) (Biovalley SA, France). Time-lapse microscopy was performed using a Cell Observer system (Carl Zeiss Microscopy GmbH, Germany) at 37° C. and 5% CO2. Images were acquired every 10 minutes using 10× (A-plan 10×/0.45 Ph1) or 40× (Plan-Apochromat 40×/0.95 Korr M27) objectives in brightfield and fluorescence (GFP filters: EX BP 470/40; at 350 ms) with a COOLSNAP™ HQ2 monochrome camera (Photometrics) with a 2×2 binning and a metal halide 120W source for fluorescence illumination. For image analysis a matrix of 4×4 images was acquired for each time point. Images were stitched with AxioVision software (Carl Zeiss Microscopy GmbH, Germany) and processed with Fiji software^36 using a slight rolling ball subtraction of background and 1 pixel Gaussian blur. For background subtraction of brightfield images, the median of z-projection was subtracted from the time-lapse stack. Single cell tracking was performed with basic commands of ImageJ^37 and Fiji^36 software and with specific tracking plugin MTrackJ^38 in manual mode. Each cell was tracked manually frame-by-frame in the bright field channel and cross-controlled by two microscope specialists. Cells with non-standard morphology or size were rejected. The fluorescence signal was measured as the difference of maximum minus minimum intensity within a defined region of interest (ROI) around each cell. Cell properties and behaviour (cell division, cell death, position, fluorescence increase) were manually documented to build cumulated curves. R^39 and Excel (Microsoft Corporation) software was used to manage data and build graphics.

[2] = test system: PU.1 expression in sorted HSC; assay: Quantitative RT-PCR of PU.1 expression in sorted HSC in culture; format: cell-based, mice; conditions: 16 h in culture with cytokine, 100 ng/ml
Method: (§1) CD150+CD34− KSLF HSC or CD150+CD34− CD48− KSLF HSC (single cells) were sorted into S-clone SF-03 medium (Sanko Jyunyaku) with 10% FBS supplemented with 100 U/ml penicillin and […] streptomycin (both Invitrogen) and cultivated in uncoated U-Shape 96 well plates (Greiner) in 100 μl SCM, 20 ng/ml rSCF, 50 ng/ml rTPO+/−100 ng/ml rM-CSF or 100 ng/ml rGM-CSF or 100 ng/ml rG-CSF. All cytokines were murine and from PeproTech. Cell viability was analyzed by AnnexinV and Propidium iodide FACS staining^35.
Total RNA was isolated and reverse transcribed with μMACS™ ONE-STEP T7 template kit (Miltenyi Biotec) and analysed by quantitative real-time PCR using TAQMAN® Universal PCR Master Mix and a 7500 Fast Real Time PCR System sequence detection system (both Applied Biosystem), following the manufacturers' instructions.

single HSC = assay: Single cell gene expression profiling of HSC (nanofluidic real time PCR); format: cell-based, mice; conditions: 16 h culture in the presence of M-CSF
Method: as §1
Single cells were sorted using the autoclone module on a FACSARIA™ III sorter (Becton-Dickinson) directly into 96 wells plate in the CELLS DIRECT™ Reaction Mix (Invitrogen). Individual cell lysis, cDNA synthesis and amplification was performed according to FLUIDIGM Advanced Development Protocol and single cell microfluidic real time PCR using Dynamic Array IFCs (BIOMARK™ FLUIDIGM) was performed by a trained technician of FLUIDIGM Inc. Preamplified products (22 cycles) were diluted 5-fold prior to analysis with Universal PCR Master Mix and inventoried TAQMAN® gene expression assays (ABI) in 96.96 DYNAMIC ARRAY™ on a BIOMARK™ system (FLUIDIGM). Ct values were calculated from the system's software (BIOMARK™ Real-time PCR Analysis; FLUIDIGM) and filtered according to a set of quality control rules outlined below.

CD150hi HSC = assay: In vitro culture of HSC, proliferation and survival; format: cell-based, mice; conditions: culture in the presence of M-CSF
Method: as §1

[3] = test system: endogenous PU.1 protein in single HSC; assay: Intra-splenic injection of CFSE-labelled HSC, PU.1 immunofluorescence; format: in vivo, mice; conditions: M-CSF receptor deficient HSC
Method: For analysis of HSC in vivo, 1500 to 7000 FACS sorted CD150^+ CD34^− KSLF HSC were stained 10 min at 37° C. with 3 μM CFSE (Invitrogen) in PBS/0.5% BSA, washed 3× in PBS/0.5% BSA and injected in 30 μl PBS (containing or not 1 μg of isotype control or AFS98 α-M-CSFR antibody^26 or 2 μM GW2580, 10 μM Ly29400, 10 μM PD98059 or 2 μM SU6656 inhibitors in 0.9% DMSO) into the spleen of anesthetized mice. After 24 h spleens were embedded in OCT (Tissue-Tek, Sakura) and frozen at −80° C. Cryostat sections (5 μm) were prepared from the entire organ, dried and fixed 10 min in 4% PFA/PBS at room temperature (RT) and every 10th section was further processed. After washes in PBS, slides were blocked for 1 hour at RT in PBS/2% BSA/1% Donkey serum/1% FCS/0.1% saponin, incubated for 36 h at 4° C. with anti-PU.1 polyclonal antibody (Santa Cruz) in PBS/0.05% saponin (1:50), washed and incubated with secondary Alexa 546-donkey-anti-rabbit antibody (Molecular probes) in PBS/0.05% saponin (1:500). All immunofluorescence samples were mounted with ProLong Gold DAPI antifade (Molecular probes) and analyzed by multifluorescent microscopy on a Zeiss Axioplan 2. All CFSE+ cells were analysed for PU.1 expression up to ≥30 or ≥50 cells as indicated. Cell counts and staining were verified by a second trained microscopist blinded to sample identity. […]

B1: M-CSF: recombinant murine macrophage colony stimulating factor from PeproTech, used in Example 1 (protein, UniProt P07141 33-552, looked up)
Macrophage colony-stimulating …: KEVSEHCSHMIGNGHLKVLQQLIDSQMETSCQIAFEFVDQEQLDDPVCYLKKAFFLVQDIIDETMRFKDNTPNANATERLQELSNNLNSCFTKDYEEQNKACVRTFHETPLQLLEKIKNFFNETKNLLEKDWNIFTKNCNNSFAKCSSRDVVTKPDCNCLYPKATPSSDPASASPHQPPAPSMAPLAGLAWDDSQRTEGSSLLPSELPLRIEDPGSAKQRPPRSTCQTLESTEQPNHGDRLTEDSQPHPSAGGPVPGVEDILESSLGTNWVLEEASGEASEGFLTQEAKFSPSTPVGGSIQAETDRPRALSASPFPKSTEDQKPVDITDRPLTEVNPMRPIGQTQNNTPEKTDGTSTLREDHQEPGSPHIATPNPQRVSNSATPVAQLLLPKSHSWGIVLPLGELEGKRSTRDRRSPAELEGGSASEGAARPVARFNSIPLTDTGHVEQHEGSSDPQIPESVFHLLVPGIILVLLTVGGLLFYKWKWRSHRDPQTLDSSVGRPEDSSLTQDEDRQVELPV
Question: What does the source list for B1?
Answer: proliferation or survival advantage of cultured HSC (video-microscopy) ([1]; culture in M-CSF): no proliferation or survival advantage; PU.1+ cells developed versus control conditions ([1]; end of the 24 h observation period (18 to 42 hours of culture)): over two-fold more PU.1+ cells; commitment events of PU.1 activation occurred earlier ([1]; in the presence of M-CSF versus control): 8 h; rate of PU.1 activation events ([1]; over the whole observation period): higher rate; PU.1 expression in FACS purified HSC [2]: increased PU.1 expression; cells with a myeloid gene expression signature (single HSC): strong increase; number of PU.1+ cells (single HSC): doubling; proliferation or survival advantage of cultured CD150hi HSC (CD150hi HSC): no proliferation or survival advantage; PU.1 activation in M-CSFR-/- HSC, M-CSF stimulated versus control recipients [3]: no higher activation of PU.1

Reference: US10709762B2, “Use of M-CSF for preventing or treating myeloid cytopenia and related complications” (priority 2013, dated 2020)
